A protein production outcome set (Wang et al. 2014)

Assay: label from the status in PepcDB records
With “MKCIPYSVLLKDLEMRNLRELEDLIIEAVYTDIIQGKLDQRNQLLEVDFCIGRDIRKKDINNIVKTLHEWCDGCEAVLLGIEQQVLRANQYKENHNRTQQQVEAEVTNIKKTLKATASSSAQEMEQQLAERECPPHAEQRQPTKKMSKVKGLVSSRH” the protein production was “not failed”. In the case of “MKDETNIKTIALAIVLIAGYNVYTSQQDVKMFSLTLANIEALAMDETTQCDNANGYRRILEGDERIYDCCYLEKVGKLEHHHHHH”, the protein production is reported as “failed”. In the case of “MKDGMKQQKLVEKMTIEEKAAILSGKTVWQTREIDRLSIPSIFLSDGPHGIRKQAGTGDHLGLNASLNATCFPTAATIANSWNQNLGEEIGQALGEEAASMDVNILLGPGLNIKRSPLCGRNFEYFSEDPYLSGKMAASYIRGIQSKGVYACPKHLAVNSQELRRMAMDAVVDERTLREIYLTGFEIAVKEGHAKAIMSSYNQINGIYANEDKHLLTDILRKDWGFDGIVVTDWGGSNDHVKGVAAGSNLEMPSCGYDSAREVIAAVQNGKLKEADLDERVGELVDAVMELTSGKKLSDKNFDRNEHHQLARKAAAESMILLKNEKQILPLDTKKSIAVIGDFAFSPRYQGAGSSMVNPTKVEDMSSILQQYDLNILGMTRGYHRNGDVDENDRKFALNLSMNADIVIFCFGLDEISESEGLDRTHMRIPQDQIDLLQDISKVNENVIGILSAGSAIEMPWHTCCKAILHGYLNGQAGASATLDILTGKVNPSGRLAETYPISYEQTPAYRYYPSNEKTSEYRESVYVGYRYYDTSKVRVQYPFGFGLSYTEFTYSDLIIEEDGIKVSVTNTGDRDGAEVVQMYVGLPNAIVFRPEKELKGFAKVYLKAGESRQIRIPFDDKTFRYWNIKTGQWEIETGTYQIMVGASVADIRLTGMTERTGNSKGYPYNPAKMPYYYTGIVQKISDEEFRELLGHEIPNRRWSGNLEINDAICQMYYAKSRLARLIYRCLTKMKKKSEAQGKPDLNILFIYNMPFRGIAKMTGGAVSMEMVYGIVDAVNGHFMLGVKKIIGGYFRNRRNNKKYEKLLKGAGGKCR”, the protein production is reported as “failed”. With “MKDIIITSQKIKRERNIYLICFLLSFAINIIAILVYTRPWIEIFTQLGYVLVISFFIYFILWIPRILVIGLRHLLRKKK” the protein production was “failed”. In the case of “MKDNYDAPESMLTGRVMYNGEALQLRGNEAVQLQLYQHGYAKHDPINVYVNQDGMYSANLFDGEYQMITKSGNGPWTSEGRDTINVTVAGNTVQDVEVTPYYLVRDAQMTLEGNKVNASFKVEKVAGGGIDRVFFMLSTTQFVNDAEHNVDRYDETDNLDAYDETGKLYTFATRDYTDNSMFQTALKRGTLFGRICIWPKGSDQGIYSKVIRLK”, the protein production is reported as “not failed”. In the case of “MKDSAQNFSTEKTGLKPVIRKIYDCLFDSYGPQGWWPLTELREAEGTNPTKTGSVQGYHPADYTYPQTRNQRFEIICGALLTQNTSWIQVEKALLNLKDLLSLKQINSFSPETIISLDTEILKEAIRPAGYYNQKAMRLKNLACWFLELENRIPARKELLSLKGVGPETADSILLYAFKQPSFVVDAYTKRIVTNLGLADEKAGYNEIKALFEENLPEDTTVYQEYHALLVEHAKRYYQKKSIRTNDIILKHVF”, the protein production is reported as “failed”. In the case of “MKEALKKYNLPIVFVITYVFGCVFAMLCQNTAGEVIMNLLIFALIVLVIYAIIFNYVMYSKMSFGQNFLYILFSSIIYIFGLIFVMILSAVIGDSINNSNDDFGFLLMMFGTSFTMGIFFAYLIPIVPSAIVKLLCGHEKK”, the protein production is reported as “failed”. With “MKEFLNSLSYGISSHEVNNEFKQIFRELLTNHIIKEHKNKYYLNNGFAFGVLDISSKGTGFLQCFDESFKKDLLIENKNLKGANYKDIVAVKLLPLKKKRPSAKVILVLKRANETSLMITKRYGEAVLGMNIKTGLSTALKASQKSLKALPLGTILKIENENNNIIEVLGHIDDESVDEKISLALFNKNNEFSDACIKEALANGDSVDASMYENRMDLRALPFCTIDPIHAKDFDDAIYFDTQKREIYVAIADVSEYVYAYSAIDKEARNRGFSIYFPHIAIPMLPRPLSENICSLKPHLDRLAYCFKITLNHENKVIKEELFEGIINSKRRFNYDEVDEILIQKPDLKELSWLYELFEITKNLRKMRLKNAFEFRTEELRMNLDENLSLKSTVFEKDTPSHNLIEDCMLLANKAAAKLIDIGVFRNHLSADVRKIDKLLNELRELGIDVNFKPNLPELIRDIQALADELNLRAEVDKLIIKAQKKAEYSSVNAGHFGLGFDKYSHFTSPIRRYSDLILHRLLKAKQKNDEKLFNYLLLNIESTCENLSTLEREADKVAFDFMDRKFARWAAKNIGKKFKALVVQNDGVCIAKLDDEIKGADIILYDTRVNLLENVEVQIMEADIVMAKIYAKITQRLIKEENV” the protein production was “failed”. In the case of “MKEIRIILMGTGNVGLNVLRIIDASNRRRSAFSIKVVGVSDSRSYASGRNLDISSIISNKEKTGRISDRAFSGPEDLMGEAADLLVDCTPASRDGVREYSLYRMAFESGMNVVTANKSGLANKWHDIMDSANQNSKYIRYEATVAGGVPLFSVLDYSILPSKVKRFRGIVSSTINYVIRNMANGRSLRDVVDDAIKKGIAESNPQDDLNGLDAARKSVILVNHIFGTEYTLNDVEYSGVDERSYNANDRLVTEVYVDDRRPVAVSRIISLNKDDFLMSIGMDGLGYQIETDSNGTVNVSDIYDGPYETAGAVVNDILLLSKVQK”, the protein production is reported as “failed”. For “MKEIRYLVRQRLPFRGHDESDESANRGNFLELVKYTVGQNEVISKVVLENAPKNNQMVFDEMSEPLIPETRDPVPSSFLLLDLILDYPVVWQQTVQSNVSDKEQMAVVFRFVDKHGTVKERFIGLIHVKETSSASLKCAIDSLFAKRGLSMKQLRGQGYDGANNMKGEFNWLRSLILRENSSAYYIHCFAHQLQLVVVAVAKKQFEVGDFFDMISALLNVVGASCKGKDRIREEYLKEIEEGINQGEIKTGKGLNQELSLQRPGNTRWGTHYTTLHRLAHLFSVIIKLLEFVEEEGTDSTKRRQANGLLKYFNTFDFAFYLQLMLLLLGLTNSLSVALQKKDQDILNPMSLVKSTKQQLCKLRDDGWDSLVNEVFSFCKKHDIELVIMDGEFVNPRNPRKRSNMTNFHHYQVECFYTILDMQIQEFNDRFDEVNTELLSCVASLSPIDSFHEFDQLKVLRLSEFYPQDFTHVDRRSLEHQLGLYIDNIREDERFAN”, the protein production was “failed”. With “MKEKGGDSLKYCYQCGLCDSVCPWNRVRQFSMRKIVRQGTFGLTEIEQEDIWRCSTCGTCPSRCPRGVNQIEAGVAMRRIGAEYDVLEHHHHHH” the protein production was “failed”. In the case of “MKEKVSVPFMLLGILFNVCLIAANLLETKVIQVGSITVTAGLLVFPISYIINDCIAEVWGFKKARLIIWSGFAMNFFVVALGLIAVALPAAPFWEGEQHFDFVFGMAPRIVVASLLAFLVGSFLNAYVMSKMKVASGGRNFSSRAIWSTMVGETADSLIFFPIAFGGLIAWPELLVMMGTQIVLKSLYEVIILPITIRVVKAVKRIDGSDVYDTDISYNVLKVKDI”, the protein production is reported as “failed”. In the case of “MKEKVVIITGGSSGMGKGMATRFAKEGARVVITGRTKEKLEEAKLEIEQFPGQILTVQMDVRNTDDIQKMIEQIDEKFGRIDILINNAAGNFICPAEDLSVNGWNSVINIVLNGTFYCSQAIGKYWIEKGIKGNIINMVATYAWDAGPGVIHSAAAKAGVLAMTKTLAVEWGRKYGIRVNAIAPGPIERTGGADKLWISEEMAKRTIQSVPLGRLGTPEEIAGLAYYLCSDEAAYINGTCMTMDGGQHLHQYPF”, the protein production is reported as “not failed”. With “MKELAGKNLGVTTRFVLRYVFQNTIHSIWRERNERRHGEKPSRTEKIVKLIDKNIRNRLSTIRVRGEEKYAQGTQMRFASRQYQIDRTFL” the protein production was “failed”. In the case of “MKELIRKLTEAFGPSGREEEVRSIILEELEGHIDGHRIDGLGNLIVWKGSGEKKVILDAHIDEIGVVVTNVDDKGFLTIEPVGGVSPYMLLGKRIRFENGTIGVVGMEGETTEERQENVRKLSFDKLFIDIGANSREEAQKMCPIGSFGVYDSGFVEVSGKYVSKAMDDRIGCAVIVEVFKRIKPAVTLYGVFSVQEEVGLVGASVAGYGVPADEAIAIDVTDSADTPKAIKRHAMRLSGGPALKVKDRASISSKRILENLIEIAEKFDIKYQMEVLTFGGTNAMGYQRTREGIPSATVSIPTRYVHSPSEMIAPDDVEATVDLLIRYLGA”, the protein production is reported as “not failed”. In the case of “MKESNHLMDTPYSYLIRSIGMKLKTSADARLAELGLNSQQGRMIGYIYENQESGIIQKDLAQFFGRRGASITSMLQGLEKKGYIERRIPENNARQKNIYVLPKGAALVEEFNNIFLEVEESITKGLTKDEQKQLMSILIKVNRSM”, the protein production is reported as “not failed”. For “MKESSTLLQNLARSLPRLNMGILLGLALLLFATLYWTLERLFDEQNSNVRLHFAQLMENIQEQELFLKRLAARHSIDALSLDAPHHLNLQAFPPTAGQQSPFATPFSLSLSPQQPAAGELPRVFALGLQLSSFYSAFWSGSQHVAPRTFVFKTFGHFDISHPEGNTAPDIGVADQVLHQQLVKSDGFADHQIHWQQYRPPASEALPTRFLAYINLHEPAPPLDVQGGNDWSVVASLLSLDDLNHLEHTRHWSIYDDFTLIEPSGTALTGDPAPADVLGEGLNFGLQGMIVKVTSQTPQLWTGLYAISYRNYLDYALWAMLSLLALGVGSIACGWAASRWYRNKVVVPAQRAQQCLNESEDFNRVVIDTVPSGLCVVSRDNLQVILQNRQAEQWQGTAQLLSRLAQDRSLIDGGETSLDIDGRYLQVEFVSTRYQRQDVLVCTFNDVTRHVEDARALDRARRSADAANAAKTLFLATMSHEIRTPLYGVLGTLELLGLTRLDSRQSDYLQTIQRSSSTLFQLISDVLDVSRIEAGQMSIDPLEFCPLDMLEDVLHAHAASAQRRGLLFYACIDPNLPDLLLGDAARISQILNNLLSNAIKFTESGRVVLRVRLLELRDQQARIEWQVTDTGIGISAQQQPQLFVPFFQVRDASNEAGAGLGLAICERLCQMMGGQMQVTSEPGLGSSFSLRLTLRCLPGGLPPLLPWPEGSPVYVRAPVPELLKNTCDWLGRLGVPAHPPPPGWSDEPQTGVLIDMLPRDGLASWPGPCVSAVSGGGSGRLPQATSWQVDAHDIRAIAQAAVLAHQGLPLYQAQHRAGRMGQLNLRILVAKHSPINQAIIKEQLQALGCQVTLSANGKQALEHWQPQRFDIVITDVNMPLMNGYELARELRRRDPQLPIIGVTANALREEGIRCLAAGMNTWIVKPMNLQTLRGHLSKLCPTSTATAAPSIPPAAPSRPPPDTAQGDRIQVTEKMRPLFLSTMHEDLRRLAEALDSGAGKIAAARLHSIAGAMGAVQAAPLAKACAELECRLLEGALTADLQAQARQLMQRLSRLLLPLE”, the protein production was “failed”. For “MKETTIYGRLVMAVKNTAQVVIGGKIITLGGYESEEYFQKVASYINNKIAELSEMPGYTRQPVETKHTLLSLNVTDDYFKAKKQAEIFEQDLQQKDQEMYELKHELIALRMKIEETEKNAQEAQQQKELLEGKVKELNDEIDKLLK”, the protein production was “not failed”. With “MKEVIHSTLAPKAIGPYSQAIATNDLVFVSGQLGIDVSTGEFKGADIHSQTTQSMENIKAILKEAGLGMDSVVKTTILLKSLDDFAVVNGIYGSYFTEPYPARATFQVAKLPKDALVEIEAIAIK” the protein production was “failed”. For “MKFAIITDVHGNFDALQTVLDDIDNREDIDKIYNLGDNIGIGHETNKVLDTIFDRDDMEIIAGNHDEAVMSLVNNTPYPEDLKDKFYEHHQWIESHMDEDYYDQLNLLPRYIEKTICGKKLLFIHYEIENQKLETGIEGQPFSPITENSKENIIELFKDKDADLIAFGHNHQMHLYDDNKTIYFNPGAVGLNNGANAVYGIVTINDNEFSIERIKLPYDNEEYLQGFDEKQVPAKQLIFEHFL”, the protein production was “failed”. For “MKFCSQCGGEVILRIPEGDTLPRYICPKCHTIHYQNPKVIVGCIPEWENKVLLCKRAIAPYRGKWTLPAGFMENNETLVQGAARETLEEANARVEIRELYAVYSLPHISQVYMLFRAKLLDLDFFPGIESLEVRLFGEQEIPWNDIAFRVIHDPLKRYMEERHHGQPAFHLGIINKPQAGSNSNE”, the protein production was “not failed”.
